What was measured:
[1] = target: T1, recombinant rat Acaa1 with 6xHis N-terminal tag, P07871
T1 chain: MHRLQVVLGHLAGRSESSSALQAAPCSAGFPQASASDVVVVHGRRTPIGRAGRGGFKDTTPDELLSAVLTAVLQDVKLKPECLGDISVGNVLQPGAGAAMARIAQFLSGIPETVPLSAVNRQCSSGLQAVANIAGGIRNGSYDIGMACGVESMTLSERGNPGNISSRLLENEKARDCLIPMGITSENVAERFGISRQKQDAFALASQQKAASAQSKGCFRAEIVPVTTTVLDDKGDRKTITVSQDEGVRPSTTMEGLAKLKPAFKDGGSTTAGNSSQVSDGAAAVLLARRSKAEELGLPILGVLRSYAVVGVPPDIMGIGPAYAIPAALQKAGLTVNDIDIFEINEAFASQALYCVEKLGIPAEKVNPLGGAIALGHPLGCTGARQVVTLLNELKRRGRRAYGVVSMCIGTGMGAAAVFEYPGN

[2] = target: T2, recombinant mouse Scp2 with C-terminal myc-6xHis tag, P32020
T2 chain: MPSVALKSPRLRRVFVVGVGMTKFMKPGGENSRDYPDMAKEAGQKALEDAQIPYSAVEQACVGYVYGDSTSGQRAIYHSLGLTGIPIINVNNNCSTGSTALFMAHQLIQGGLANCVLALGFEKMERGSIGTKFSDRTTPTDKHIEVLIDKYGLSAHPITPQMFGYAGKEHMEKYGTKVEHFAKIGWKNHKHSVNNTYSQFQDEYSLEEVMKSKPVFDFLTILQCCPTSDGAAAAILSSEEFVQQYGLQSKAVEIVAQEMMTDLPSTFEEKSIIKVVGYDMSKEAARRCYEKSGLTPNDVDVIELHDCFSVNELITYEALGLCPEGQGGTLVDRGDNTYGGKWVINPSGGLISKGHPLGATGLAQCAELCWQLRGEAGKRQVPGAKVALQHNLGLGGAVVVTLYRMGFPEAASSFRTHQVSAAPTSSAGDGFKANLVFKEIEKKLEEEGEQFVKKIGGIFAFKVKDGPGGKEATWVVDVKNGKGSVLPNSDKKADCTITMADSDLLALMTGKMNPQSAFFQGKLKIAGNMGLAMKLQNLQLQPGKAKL

[3] = target: T3, recombinant rat Acox1 with C-terminal myc-6xHis tag, P07872
T3 chain: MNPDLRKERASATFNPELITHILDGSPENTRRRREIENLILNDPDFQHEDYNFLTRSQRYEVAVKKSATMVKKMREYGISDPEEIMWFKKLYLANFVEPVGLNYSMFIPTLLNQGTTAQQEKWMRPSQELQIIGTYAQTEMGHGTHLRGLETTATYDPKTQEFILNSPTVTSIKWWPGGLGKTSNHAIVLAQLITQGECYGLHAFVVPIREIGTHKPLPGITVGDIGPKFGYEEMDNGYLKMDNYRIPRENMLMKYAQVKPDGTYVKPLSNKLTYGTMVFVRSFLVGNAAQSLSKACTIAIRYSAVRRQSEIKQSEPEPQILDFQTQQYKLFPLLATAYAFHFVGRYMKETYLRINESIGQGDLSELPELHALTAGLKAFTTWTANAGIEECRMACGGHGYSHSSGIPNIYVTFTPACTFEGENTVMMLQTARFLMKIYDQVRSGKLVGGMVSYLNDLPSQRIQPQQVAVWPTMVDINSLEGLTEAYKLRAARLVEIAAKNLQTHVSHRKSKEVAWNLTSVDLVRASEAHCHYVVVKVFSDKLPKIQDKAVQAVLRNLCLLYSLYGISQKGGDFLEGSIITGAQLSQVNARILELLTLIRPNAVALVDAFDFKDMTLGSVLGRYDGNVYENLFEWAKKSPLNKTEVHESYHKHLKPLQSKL

B1: recombinant Tysnd1-FLAG purified from COS-7 cells (protein)
chain 1: MGRQWGPSMRVAEQAGCVVSASRAGQPDAGSWSCSGVILSRNPGLVLCHGGIFTPFLRTGSAALTQTGTAFLPGDSCSDDLRLHVQWGPTAASPAGRADQELPGLCTPQCASLGLEPGAPSRARARPLQPPRPAQLLLLLSCPAFRSHFARLFGADAVDQWHFVSSAPDDAVSEEEEEDQLRALGWFALLRVQRGAAAEERRGPVVTVAPLGAVVKGAPLLACGSPFGAFCPDIFLNTLSRGVLSNAAGPLLLTDARCLPGTEGGGVFAARPAGALVALVAAPLCWKAREWVGLTLLCAAAPLLQVARWALARLHPGSASLSVLLPPPDVSTPRGLPLRDLGPPWAAAAVLVECGTVWGSGVVVAPRLVVTCRHVAPREAARVLVHSATPKNVAIWGQVVFATQETSPYDIAVVSLEEELNGVPTPVPAGHFHEGEPVSVVGFGVFGQACGPSVTSGILSAVVRVDGSPVMLQTTCAVHGGSSGGPLFSSGSGDLLGIVASNTRDNNTGATYPHLNFSIPITVLQPALKQYSQTGDLGGLRELDHTTEPVRVVWRLQRPLSE
chain 2: VPRSKL
[1]
  in vitro cleavage (Amido Black staining of the membrane): Incubation of Tysnd1 with Acaa1 resulted in the removal of 3 kDa PTS2-containing N-terminal propeptide to produce mature Acaa1
[2]
  in vitro cleavage (Western blot with anti-cMyc antibody): Scp2 was processed to generate C-terminal fragment of 16 kDa
[3]
  in vitro cleavage (Western blot with anti-cMyc antibody): Acox1 was cleaved to produce C-terminal fragment of 28 kDa

From patent publication US20080160023
